# Test results published in the nanobody polyreactivity screen of Harvey et al. (2022).
# Test: yeast display, Sf9 membrane polyspecificity reagent, FACS + sequencing; frameworks hold sequencing errors
# Outline: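 Galactose induction of a Saccharomyces cerevisiae BJ5465 synthetic nanobody display library ran 36–48 hours. The cells were then stained for 1 hour at 4 °C with 10% biotinylated, detergent-solubilized Sf9 membrane reagent, pulled down on streptavidin microbeads and FACS-sorted into low and high (top ~1%) gates on expression and reagent-binding fluorescence. Labels for polyreactivity follow the gate of origin.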
row,Sequence,polyreactivity (PSR sort gate)
1,QVQLVESGGGLVQAGGSLRLSCAASGRTFYLYAMGWYRQAPGKVRELVAAITRRGGSPYYADSVKGRFTISRDNAKNTVYLQMNSLKPEDTAVSYCAADRPGTGYSDYDYWGQGTQVTVSS,high polyreactivity
2,QVQLRESGAGGRQPAPELRGERQYFYWSADGLVSQAPGKEREFVAGIDRGTITNYADSVRGRFTISRDNAKKTVYLQMNSLKPEDTAVYYCAVPAYGDPSSYYWGQGTHVTVSS,high polyreactivity
3,QVKLVESGGGLVQAGGSLRLSCAASGRTFYINAMGWYRQAPGKERELVAAISRVGSTNYADSVKGRFTISRDNAKNTVYLQMNSLKPEDTEVYYCAARSRGGRRYYYWGQGSQVTVSS,high polyreactivity
4,QVQLVESGGGLVQAGGSLRLSCAASGGIFTYYVLGWYRQAPGKERELVAAITIGDSTYYADSVKGRFTISRDNAKNTVYVQINSLKPEDTAVYYCNADPYNTWGFTNGYWGQGTQVTVSS,low polyreactivity
5,QVQLVESGGGLVQAGGSLRLSCAASGIIFGGYAMGWYRQAHGKERELVARITSGGSTNYADSVKGRFTISRDNAKNTVYLQMNSLKPEDTAVYYCNARGGWSWRFYYWGQGTQVTVSS,high polyreactivity
6,QVQLVESGGGLVQAGGSLRLSCAASGFTFYLYTMGWYRQAPGKERQLVAAISGSGGSTYYADSVKGRFTISRDNAKITVYLQMNSLKPEDTAVYYCAASPVRVGKVIDRRDYWGQGTQVTVSS,high polyreactivity
7,QVQLVESGGGLVQAGGSLRLSCAASGSIFLVNDKGWYRPAPGKERELVAAISSRGGSTYYADSVKGRFTISRDNAKNTVYLQMNSLKPEDTAVYYCAALQRPLEGLLYYYWGQGTPVTVSS,low polyreactivity
8,QVQLVESGGGLVQAGGSLRLSCAASGRTFVDNAMGWYRQAPGKKRELVATISSGDSTTYADSVKGRFTISRDNAKNTVYLQMNSLKPEDTAVYYCAAAYGWSWYRYDYWGQGTQVTVSS,high polyreactivity
9,QVQLVESGGGLVQAGGSLRLSCAASGGTFGYNVMGWYRQAPGKERELVAAISYSVGGTYYADSVKGRFTISRDNAMNTVYLQMNSLKPEDTAVYYCAATGRRRTYSEYEYWGQGTQVTVSS,high polyreactivity
10,QVQLVESGGGLVQAGGSLRLSCAASGSTFGINAMVWYRQAPGKERELVASITRRGGSTYYADSVKGRFTISRDNAKNTVYLQMNSLKPEDTAVYYCNKTYRYGTPLYDYWGQGTQVTVSS,high polyreactivity
11,QVQLVESGGGLVQAGGSLRLSCAASGFILSDNAMGWYRQAPGKEREFVAAITSSGGSTHYADSVKGRFTISRDNAKNTVYLQMNSLKPEDTAVYYCNTYPYLWGQGTQVTVSS,low polyreactivity
12,QFQLVESGGGLVQAGGSLRLSCAASGIIFSLYAMGWYIQAPGKERELVAAITTGGRTYYADSVKGRFTISRDNAKNTVYFQMNSLKPEDTAVYYCAAQGPWQGGTTLSTNRGYWGQGTQVTVSS,high polyreactivity
13,QVQLVESGGGLVQAGGSLRLSCAASGLTFSDYAMGWYRQAPGKEREFVAAITRNGASTRYADSVKGRFTISRDNAKNTVYLQMNRLKPEDTAVYYCSTDVGFGRKQRPHRPGYGYWGQGTQVTVSS,low polyreactivity
14,QVQLVESGGGLVQAGGSLRLRCAASGRIFREYAMGWYRQAPGKERELVAAITASGGGTYYADSVKGRFTISRDNAKNTVYLQMNSLKPEDTAVYYCAARYSSRTRNDYWGQGTQVTVSS,low polyreactivity
15,QVQLVESGGGLVQAGGSLRLSCAASGSTFDNYAMGWYRQAPGKERELVAAINSRGGRTYYADSVKGRFTISRDNAKNTVYLQMNSLKPDDTAVYYCAAVGATHRFDYWGQGTQVTVSS,high polyreactivity
16,QVQLVESGGGVVQAGGRLRLSCAASGGIYRYYAMGWYRQAPGKERELVAVITKSGGDTYYADSVKGRFTISRDNAKNTVYLQMNSLKPEDTAVYYCAAVYGYYTYWIAGFTWAGDYWGQGTQVTVSS,low polyreactivity

row,Sequence,polyreactivity (PSR sort gate)
1,QVQLVESGGGLVQAGGRLRLSCAASGSTFRSNVMGRYRQATGKERELVAAITSGSITNYADSVKGRFTISRDNAKNTVYLQMNSLKPEDTAVYYCAVETYVYGRMGYLGQGTQVTVSS,high polyreactivity
2,QVQLEESGGGLVQAGGSLRLSCAASGSIFNYYAMGWYRQAPGKERELVAAITTSGGNTYYADSVKGRFTISRDNAKNTVYLQMNSLKPEDTAVYYCNVDARSSYDYWGQGTQVTVSS,low polyreactivity
3,QVQLVESGGGLVQAGGSLRLSCAASGRIFYLYAMGWYRQAPGKERELVATINTSGGITYYADSVKGRFTISRDNAKNTVYLQMNSLKPEDTAVYYCNADWEWQYFYFRPGGYWGQGTQVTVSS,low polyreactivity
4,QVQLVESGGGLVQAGGSLRLSCAASGLIFRWYAMGWYRQAPGKEWELVAAISRRGGTTNYADSVKGRFTISRDNAKKTVYLQMNSLKPEDTAVYYCAADYQSVGGAEYDYWGQGTQVTVSS,high polyreactivity
5,QVQLVESGGGLVQAGGSLRLSCAASGRIFQYYAMGWYRQAPGKEREFVAAISDSGSNTYYADSVKGRFTISCDKAKNTVYLQMNSLKPEDTAVSYCAALYATRALFYFWGQGTQVTVSS,low polyreactivity
6,QVQLVESGGGLVQARGSLRLSCAPSGFIFDVYAMGWYRQAPGKERELVAAISSSGGRTYYADSVKGRFTISRDNAKNTVYLQMNSLKPEDTAVYYCAAKTDSRTKVYTADYWGQGTQVTVSS,high polyreactivity
7,QVQLVESGGGLVQAGGSLRLSCAASGRTFQTNDMGWYRQAPGKERELVAAISRRGGSTYYADSVKGRFTISRDNAKNTVYLQMNSLKPEDTAVYYCAATRLSRYEYWGQGTQVTVSS,low polyreactivity
8,QVQHVESGGGLVHAGGSLRLSCAASGSIASYAMGWYRHATGKEKELVAGISWSGGSTYYADSVKGRFTISRDNAKNNVYLQMISLKPEDTAVYYCAARRFCPNRDSRMGYWGQGTQVTVSS,high polyreactivity
9,QVQLVESGGGLVQAGGSLRLSCAASGSTFSDYAMGWYRQAPGKERELVAAISSSGGRTYYADSVKGRFTISRDNAKNTVYLQMNSLKPEDTAVYYCNAYYIYILYGGQTYTGDYWGQGTQVTVSS,high polyreactivity
10,QVQLVESGGGLVQAGGSLRLSCAASGFTFGRYAMGWYRQAPGKERELVAAISYSGGSTYYADSVKGRFTISRDNAKNTVYLQMNSLKPEDTAVYYCAARDSYWSVYYWGQGTQVTVSS,high polyreactivity
11,QVQLVESGGGLVQAGGSLRLSCAASGFIFGYYAMGWYRQAPGKEREFVAAITKRGGRTYYADSVKGRFTISRDNAKNTVYLQMNSLKPEDTAVYYCNKAIRQDRWVQEEDYWGQGTQVTVSS,high polyreactivity
12,QVQLVESVGGLVQAGASLRLSCAPSGSTFPVYAMGWYRPAPGKESELVARISSGSSTNYADSVKGRFTISRDNAKITVYLQMNSLKPEDTAVYYCAAQTPRFVWQKGPLDSEDYWGQGTQVTVSS,high polyreactivity
13,QVQLVESGGGLVQAGGSLRLSCAASGFIFTTYAMGWYRQAPGKERELVAAISYRTGRTFYADSVKGRFTISRDNAKNTVYLQMNSLKPEDTAVYYCAAGTIQTVTTYWWTYRIGLGYWGQGTKVTVSS,high polyreactivity
14,QVQLVESGGGLVQAGGSLRLSCAASGSTFQYNAMGWYRQAPGKEREFVAAITNGGGSTYYADSVKGRFTISRDNAKNTVYLQMNSLKPEDTAVYYCNARFRYARYSQRYDYWGQGTQVTVSS,high polyreactivity
15,QVQLVESGGGLVQAGGSLRLSCAASGFTFSRNAMGWYIQAPGKERELVAAISQSGGSTYYADSVKGRFTISRDNAKNTVYLQMNSLKPEDTAVYYCAAQSFAQYGWRYGYWGQGTQVTVSS,high polyreactivity
16,QDQLVESGGGLVQAGGSLRLSCAASGYTFDYNAMGWYRQAPGKEREFVAAIDWSGGNTYYADSVKGRFTISRDNAKNTVYLQMNSLKPEDTAVYYCNTVTEAVTRRYDYWGQGTQVTVSS,low polyreactivity
